# Experimental data as given in patent US20210388087A1 (Chugai, published 2021).
# Target: T1, CD3 epsilon homodimer protein (UniProt P07766 23-126)
# T1 construct: also called CD3 (CD3 epsilon)
# Experiment: SPR, antibody over immobilised CD3e homodimer;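 further: SPR at 25 °C with CD3 epsilon homodimer amine-coupled to a CM4 sensor chip and antibody flowed over as analyte in HBS-EP+ running buffer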
# T1 sequence (P07766 23-126): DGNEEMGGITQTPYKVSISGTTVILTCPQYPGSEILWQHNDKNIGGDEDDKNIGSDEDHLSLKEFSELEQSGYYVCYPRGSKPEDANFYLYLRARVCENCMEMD
row,KD ratio to GLS3000,Binder
1,1.01,"CE115HA000/GLS3000 S27eA (antibody, IgG1, name in Kabat numbering, V domains shown, one-arm IgG1) VH: QVQLVESGGGVVQPGRSLRLSCAASGFTFSNAWMHWVRQAPGKGLEWVAQIKAKSNNYATYYAESVKGRFTISRDDSKNSLYLQMNSLKTEDTAVYYCRYVHYGAYYGVDAWGQGTTVTVSS VL: DIVMTQSPLSLPVTPGEPASISCRSSQSLVHANRNTYLHWYQQKPGQAPRLLIYKVSNRFSGVPDRFSGSGSGTDFTLKISRVEAEDVGVYYCGQGTQVPYTFGQGTKLEIK"
2,1.02,"CE115HA000/GLS3000 F55D (antibody, IgG1, name in Kabat numbering, V domains shown, one-arm IgG1) VH: QVQLVESGGGVVQPGRSLRLSCAASGFTFSNAWMHWVRQAPGKGLEWVAQIKAKSNNYATYYAESVKGRFTISRDDSKNSLYLQMNSLKTEDTAVYYCRYVHYGAYYGVDAWGQGTTVTVSS VL: DIVMTQSPLSLPVTPGEPASISCRSSQSLVHSNRNTYLHWYQQKPGQAPRLLIYKVSNRDSGVPDRFSGSGSGTDFTLKISRVEAEDVGVYYCGQGTQVPYTFGQGTKLEIK"
3,1.09,"CE115HA000/GLS3000 F55Q (antibody, IgG1, name in Kabat numbering, V domains shown, one-arm IgG1) VH: QVQLVESGGGVVQPGRSLRLSCAASGFTFSNAWMHWVRQAPGKGLEWVAQIKAKSNNYATYYAESVKGRFTISRDDSKNSLYLQMNSLKTEDTAVYYCRYVHYGAYYGVDAWGQGTTVTVSS VL: DIVMTQSPLSLPVTPGEPASISCRSSQSLVHSNRNTYLHWYQQKPGQAPRLLIYKVSNRQSGVPDRFSGSGSGTDFTLKISRVEAEDVGVYYCGQGTQVPYTFGQGTKLEIK"
4,1.13,"CE115HA000/GLS3000 F55Y (antibody, IgG1, name in Kabat numbering, V domains shown, one-arm IgG1) VH: QVQLVESGGGVVQPGRSLRLSCAASGFTFSNAWMHWVRQAPGKGLEWVAQIKAKSNNYATYYAESVKGRFTISRDDSKNSLYLQMNSLKTEDTAVYYCRYVHYGAYYGVDAWGQGTTVTVSS VL: DIVMTQSPLSLPVTPGEPASISCRSSQSLVHSNRNTYLHWYQQKPGQAPRLLIYKVSNRYSGVPDRFSGSGSGTDFTLKISRVEAEDVGVYYCGQGTQVPYTFGQGTKLEIK"
5,2.42,"CE115HA000/GLS3000 F55T (antibody, IgG1, name in Kabat numbering, V domains shown, one-arm IgG1) VH: QVQLVESGGGVVQPGRSLRLSCAASGFTFSNAWMHWVRQAPGKGLEWVAQIKAKSNNYATYYAESVKGRFTISRDDSKNSLYLQMNSLKTEDTAVYYCRYVHYGAYYGVDAWGQGTTVTVSS VL: DIVMTQSPLSLPVTPGEPASISCRSSQSLVHSNRNTYLHWYQQKPGQAPRLLIYKVSNRTSGVPDRFSGSGSGTDFTLKISRVEAEDVGVYYCGQGTQVPYTFGQGTKLEIK"
6,1.96,"CE115HA000/GLS3000 G89D (antibody, IgG1, name in Kabat numbering, V domains shown, one-arm IgG1) VH: QVQLVESGGGVVQPGRSLRLSCAASGFTFSNAWMHWVRQAPGKGLEWVAQIKAKSNNYATYYAESVKGRFTISRDDSKNSLYLQMNSLKTEDTAVYYCRYVHYGAYYGVDAWGQGTTVTVSS VL: DIVMTQSPLSLPVTPGEPASISCRSSQSLVHSNRNTYLHWYQQKPGQAPRLLIYKVSNRFSGVPDRFSGSGSGTDFTLKISRVEAEDVGVYYCDQGTQVPYTFGQGTKLEIK"
7,1.15,"CE115HA000/GLS3000 F55P (antibody, IgG1, name in Kabat numbering, V domains shown, one-arm IgG1) VH: QVQLVESGGGVVQPGRSLRLSCAASGFTFSNAWMHWVRQAPGKGLEWVAQIKAKSNNYATYYAESVKGRFTISRDDSKNSLYLQMNSLKTEDTAVYYCRYVHYGAYYGVDAWGQGTTVTVSS VL: DIVMTQSPLSLPVTPGEPASISCRSSQSLVHSNRNTYLHWYQQKPGQAPRLLIYKVSNRPSGVPDRFSGSGSGTDFTLKISRVEAEDVGVYYCGQGTQVPYTFGQGTKLEIK"
8,1.43,"CE115HA000/GLS3000 F55L (antibody, IgG1, name in Kabat numbering, V domains shown, one-arm IgG1) VH: QVQLVESGGGVVQPGRSLRLSCAASGFTFSNAWMHWVRQAPGKGLEWVAQIKAKSNNYATYYAESVKGRFTISRDDSKNSLYLQMNSLKTEDTAVYYCRYVHYGAYYGVDAWGQGTTVTVSS VL: DIVMTQSPLSLPVTPGEPASISCRSSQSLVHSNRNTYLHWYQQKPGQAPRLLIYKVSNRLSGVPDRFSGSGSGTDFTLKISRVEAEDVGVYYCGQGTQVPYTFGQGTKLEIK"
9,1.29,"CE115HA000/GLS3000 F55M (antibody, IgG1, name in Kabat numbering, V domains shown, one-arm IgG1) VH: QVQLVESGGGVVQPGRSLRLSCAASGFTFSNAWMHWVRQAPGKGLEWVAQIKAKSNNYATYYAESVKGRFTISRDDSKNSLYLQMNSLKTEDTAVYYCRYVHYGAYYGVDAWGQGTTVTVSS VL: DIVMTQSPLSLPVTPGEPASISCRSSQSLVHSNRNTYLHWYQQKPGQAPRLLIYKVSNRMSGVPDRFSGSGSGTDFTLKISRVEAEDVGVYYCGQGTQVPYTFGQGTKLEIK"
10,1.27,"CE115HA000/GLS3000 F55R (antibody, IgG1, name in Kabat numbering, V domains shown, one-arm IgG1) VH: QVQLVESGGGVVQPGRSLRLSCAASGFTFSNAWMHWVRQAPGKGLEWVAQIKAKSNNYATYYAESVKGRFTISRDDSKNSLYLQMNSLKTEDTAVYYCRYVHYGAYYGVDAWGQGTTVTVSS VL: DIVMTQSPLSLPVTPGEPASISCRSSQSLVHSNRNTYLHWYQQKPGQAPRLLIYKVSNRRSGVPDRFSGSGSGTDFTLKISRVEAEDVGVYYCGQGTQVPYTFGQGTKLEIK"
11,1.15,"CE115HA000/GLS3000 F55G (antibody, IgG1, name in Kabat numbering, V domains shown, one-arm IgG1) VH: QVQLVESGGGVVQPGRSLRLSCAASGFTFSNAWMHWVRQAPGKGLEWVAQIKAKSNNYATYYAESVKGRFTISRDDSKNSLYLQMNSLKTEDTAVYYCRYVHYGAYYGVDAWGQGTTVTVSS VL: DIVMTQSPLSLPVTPGEPASISCRSSQSLVHSNRNTYLHWYQQKPGQAPRLLIYKVSNRGSGVPDRFSGSGSGTDFTLKISRVEAEDVGVYYCGQGTQVPYTFGQGTKLEIK"
12,1.72,"CE115HA000/GLS3000 F55W (antibody, IgG1, name in Kabat numbering, V domains shown, one-arm IgG1) VH: QVQLVESGGGVVQPGRSLRLSCAASGFTFSNAWMHWVRQAPGKGLEWVAQIKAKSNNYATYYAESVKGRFTISRDDSKNSLYLQMNSLKTEDTAVYYCRYVHYGAYYGVDAWGQGTTVTVSS VL: DIVMTQSPLSLPVTPGEPASISCRSSQSLVHSNRNTYLHWYQQKPGQAPRLLIYKVSNRWSGVPDRFSGSGSGTDFTLKISRVEAEDVGVYYCGQGTQVPYTFGQGTKLEIK"
13,1.55,"CE115HA000/GLS3000 F55K (antibody, IgG1, name in Kabat numbering, V domains shown, one-arm IgG1) VH: QVQLVESGGGVVQPGRSLRLSCAASGFTFSNAWMHWVRQAPGKGLEWVAQIKAKSNNYATYYAESVKGRFTISRDDSKNSLYLQMNSLKTEDTAVYYCRYVHYGAYYGVDAWGQGTTVTVSS VL: DIVMTQSPLSLPVTPGEPASISCRSSQSLVHSNRNTYLHWYQQKPGQAPRLLIYKVSNRKSGVPDRFSGSGSGTDFTLKISRVEAEDVGVYYCGQGTQVPYTFGQGTKLEIK"
14,1.28,"CE115HA000/GLS3000 F55I (antibody, IgG1, name in Kabat numbering, V domains shown, one-arm IgG1) VH: QVQLVESGGGVVQPGRSLRLSCAASGFTFSNAWMHWVRQAPGKGLEWVAQIKAKSNNYATYYAESVKGRFTISRDDSKNSLYLQMNSLKTEDTAVYYCRYVHYGAYYGVDAWGQGTTVTVSS VL: DIVMTQSPLSLPVTPGEPASISCRSSQSLVHSNRNTYLHWYQQKPGQAPRLLIYKVSNRISGVPDRFSGSGSGTDFTLKISRVEAEDVGVYYCGQGTQVPYTFGQGTKLEIK"
15,1.1,"CE115HA000/GLS3000 G89A (antibody, IgG1, name in Kabat numbering, V domains shown, one-arm IgG1) VH: QVQLVESGGGVVQPGRSLRLSCAASGFTFSNAWMHWVRQAPGKGLEWVAQIKAKSNNYATYYAESVKGRFTISRDDSKNSLYLQMNSLKTEDTAVYYCRYVHYGAYYGVDAWGQGTTVTVSS VL: DIVMTQSPLSLPVTPGEPASISCRSSQSLVHSNRNTYLHWYQQKPGQAPRLLIYKVSNRFSGVPDRFSGSGSGTDFTLKISRVEAEDVGVYYCAQGTQVPYTFGQGTKLEIK"
16,0.91,"CE115HA000/GLS3000 F55N (antibody, IgG1, name in Kabat numbering, V domains shown, one-arm IgG1) VH: QVQLVESGGGVVQPGRSLRLSCAASGFTFSNAWMHWVRQAPGKGLEWVAQIKAKSNNYATYYAESVKGRFTISRDDSKNSLYLQMNSLKTEDTAVYYCRYVHYGAYYGVDAWGQGTTVTVSS VL: DIVMTQSPLSLPVTPGEPASISCRSSQSLVHSNRNTYLHWYQQKPGQAPRLLIYKVSNRNSGVPDRFSGSGSGTDFTLKISRVEAEDVGVYYCGQGTQVPYTFGQGTKLEIK"
17,1.12,"CE115HA000/GLS3000 F55V (antibody, IgG1, name in Kabat numbering, V domains shown, one-arm IgG1) VH: QVQLVESGGGVVQPGRSLRLSCAASGFTFSNAWMHWVRQAPGKGLEWVAQIKAKSNNYATYYAESVKGRFTISRDDSKNSLYLQMNSLKTEDTAVYYCRYVHYGAYYGVDAWGQGTTVTVSS VL: DIVMTQSPLSLPVTPGEPASISCRSSQSLVHSNRNTYLHWYQQKPGQAPRLLIYKVSNRVSGVPDRFSGSGSGTDFTLKISRVEAEDVGVYYCGQGTQVPYTFGQGTKLEIK"
18,1.02,"CE115HA000/GLS3000 F55H (antibody, IgG1, name in Kabat numbering, V domains shown, one-arm IgG1) VH: QVQLVESGGGVVQPGRSLRLSCAASGFTFSNAWMHWVRQAPGKGLEWVAQIKAKSNNYATYYAESVKGRFTISRDDSKNSLYLQMNSLKTEDTAVYYCRYVHYGAYYGVDAWGQGTTVTVSS VL: DIVMTQSPLSLPVTPGEPASISCRSSQSLVHSNRNTYLHWYQQKPGQAPRLLIYKVSNRHSGVPDRFSGSGSGTDFTLKISRVEAEDVGVYYCGQGTQVPYTFGQGTKLEIK"
19,0.92,"CE115HA000/GLS3000 F55E (antibody, IgG1, name in Kabat numbering, V domains shown, one-arm IgG1) VH: QVQLVESGGGVVQPGRSLRLSCAASGFTFSNAWMHWVRQAPGKGLEWVAQIKAKSNNYATYYAESVKGRFTISRDDSKNSLYLQMNSLKTEDTAVYYCRYVHYGAYYGVDAWGQGTTVTVSS VL: DIVMTQSPLSLPVTPGEPASISCRSSQSLVHSNRNTYLHWYQQKPGQAPRLLIYKVSNRESGVPDRFSGSGSGTDFTLKISRVEAEDVGVYYCGQGTQVPYTFGQGTKLEIK"
20,1.15,"CE115HA000/GLS3000 F55S (antibody, IgG1, name in Kabat numbering, V domains shown, one-arm IgG1) VH: QVQLVESGGGVVQPGRSLRLSCAASGFTFSNAWMHWVRQAPGKGLEWVAQIKAKSNNYATYYAESVKGRFTISRDDSKNSLYLQMNSLKTEDTAVYYCRYVHYGAYYGVDAWGQGTTVTVSS VL: DIVMTQSPLSLPVTPGEPASISCRSSQSLVHSNRNTYLHWYQQKPGQAPRLLIYKVSNRSSGVPDRFSGSGSGTDFTLKISRVEAEDVGVYYCGQGTQVPYTFGQGTKLEIK"
21,1.16,"CE115HA000/GLS3000 F55A (antibody, IgG1, name in Kabat numbering, V domains shown, one-arm IgG1) VH: QVQLVESGGGVVQPGRSLRLSCAASGFTFSNAWMHWVRQAPGKGLEWVAQIKAKSNNYATYYAESVKGRFTISRDDSKNSLYLQMNSLKTEDTAVYYCRYVHYGAYYGVDAWGQGTTVTVSS VL: DIVMTQSPLSLPVTPGEPASISCRSSQSLVHSNRNTYLHWYQQKPGQAPRLLIYKVSNRASGVPDRFSGSGSGTDFTLKISRVEAEDVGVYYCGQGTQVPYTFGQGTKLEIK"
